In the assay the target is GST-gc-p300/CH1 fusion protein (CH1 domain of grass carp p300) (grass carp (Ctenopharyngodon idella)).

For “gcCITED3b (grass carp CITED3b), in vitro translated (natural protein)”, the gcHIF-1-mediated transactivation of HRE-luciferase activity in CHO cells, change in the presence of gcCITED3b is -40%.
For “gcCITED3a (grass carp CITED3a), in vitro translated (natural protein)”, the gcHIF-1-mediated transactivation of HRE-luciferase activity in CHO cells, change in the presence of gcCITED3a was -40%.

Source of the values: publication PMC2780419.
